B1: TPR t1 (parent)
chain: GACCAAUCUGCCCUCAGAGCUCGAGAACAUCUUCGGAUGCAGAGGAGGCAGGCUUCGGUGGCGCGAUAGCGCCAACGUCCUCAACCUCCAAUGCAUCCCACCACAUGAUGAUGCCUGAAGAGCCUUGGUUUUUUG

Variants of: B1
Assay: polymerase ribozyme fitness, log enrichment relative to wild type (log ratio); higher = more active; in vitro selection for triplet polymerase activity
How it was run: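 One round of in vitro selection, in triplicate, was applied to PCR-built, transcribed mutant libraries of each subunit of a heterodimeric triplet polymerase ribozyme. The steps were annealing with a biotinylated primer, partner subunit and triplets, incubation frozen at −7 °C, gel excision of extended constructs, streptavidin-bead capture and RT-PCR. Fitness is the logarithm, base 2, of genotype enrichment over wild-type enrichment from inverse-variance-weighted replicate averages of Illumina-sequenced inputs and outputs, keeping genotypes with ≥10 input reads and ≥1 read per output.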

Variant | polymerase ribozyme fitness (log ratio)
G93A C101U A118G | -0.63
U9C C13A A27U G44C G48U C62U U112A | -2.71
C13A G52U U54C C70U C124U | -1.03
C13U C53G | -0.309
C34G G57C C72A A100C | -4.64
C89G C101A | -2.55
A105G U109A | -5.94
G69U C73U G110A C123A | -0.661
U112A U133G | 1.43
A43C U129A | -3.98
C13G C40A A84U U106A | -3.53
A26U G61C U96A C114U G117A | -5.84
C11A C73G | -1.79
C49U G60U U106A G127U U130G G135U | -1.71
A2G C8G C22U | -5.08
G44U G58C G113A | -1.31
C12G A100C | -0.741
C70U A91U G113A | -2.99
A29C G44C C53U C85A C124G | -4.76
U9G C97A A111G | -6.78
G61A U116G G128U | -3.71
A29G A37C C102A | -4.8
C34A C64U C94U | -3.02
A6U C123U | 1.41

Variant | polymerase ribozyme fitness (log ratio)
C22A C82U A90U U112A | -4.93
G60U A103G U112G | -6.67
C8G A18C A37C C64G A90U U106A C123A U131A | -6.48
A5G C12G C34U C72A A95C | -5.52
C12U C70A | -0.649
C15A G36U G42A C49G G60U | -6.51
G48U C102A A111G | -1.65
G52A C102A | -1.79
G71U C115A | 1.51
C12U U130A | -0.0283
G51A C124A | -1.48
C20A A90U | -3.71
C64U U129A | -0.991
U9C A50U G52C | -2.28
G23A G69U A90U C124U | -5.33
U106A | 0.145
G63U C99U U106A | -3.55
C86G C123A | -0.0336
C49U C72G | -0.927
A5C U9C C13U | -0.074
C8G C13A U67C | -4.98
C72U G110C G128U | -6.47
C13U A29U U55A G60A C101G | -4.15
G61U U78G C94A U129A | -2.72

Variant | polymerase ribozyme fitness (log ratio)
A41U C56G G69C U92A | -5.43
C72G U106A U129A | -1.25
U9G C88A | -0.00805
A6C C115G | -2.07
C11U A26U U55C G71U | -3
A5G A50U G63A G117A | -6.03
A16U G69U C89U | -1.47
C49A C53G | -0.789
G36A A41C A43U C88A A105C C123G | -5.88
U21A U81A | -1.49
G10C C49A G51C G57C C72U C115G | -3.99
A41G C62A | -1.85
U32G A50G G69U C88G A121C | -3.17
A2U G61A | -2.17
G93U U106A | -1.03
G61U C124U | 1.52
C8U C34A A119G | -1.9
U9G U54C G69A C80U | -2.99
U21A A29C G48A | -3.86
C49G G58C C79A | -5.19
G63U U106G | -3.21
C3A C11U G47A G63U G127C | -3.33
C20A A43U | -3.83
A43U G93A A119C G120A | -2.58

Variant | polymerase ribozyme fitness (log ratio)
G57C C94A C97U A121U G122U | -1.21
G44A C49U U54G U59A G61A A119G | -7.24
C11A C79U G120A | 1.38
C3U A68G | -3.05
C12A C15A G47U C62U U78C A83U G120C U133A | -2.07
C94U U112A | 1.59
U9G C115U | -0.945
U9A A18U C64U U92C | -3
C89A U112A A121U U131C | 0.436
C76G G113A G122C G135U | -2.49
A46U G110U | -2.33
U78C C97G C104A | -4.78
A5G C12A C72G U87A C115G U131C | -3.53
C53G U112G G113C | -5.93
G23C G120A | -5.95
C8G C62A | -0.27
C72A C80A A90G U125A | -3.65
C62G C88G A91U U112A | -5.1
U38A G71A U129A | -3.95
G17C C56G U96A | -5.36
A26G U112A U125A | -1.55
C11U C40U G120A | -0.013
C12U A24G G36A G63A | -2.54
C53U G57U C101A U109G | -6.08

Variant | polymerase ribozyme fitness (log ratio)
U7G C15U C28G U32A A41U G63U C89A U116C | -4.52
C12U C15U C49A C73G C101U U133G | -1.62
C28A G60C | -4.02
A46C U126G | -2.07
U9A C31G G61U A83C G107C | -1.25
C12A C85A | -2.59
A26U G39A G120C C124A G135A | -3.54
C53G C79U | -1.64
G52C G93C | -1.82
C20A C72G U81A U109A A118C G122A | -5.92
U7A C12G A18G G44A G52U | -5.51
G44U G61C | -2.36
C22G C62A | -3.99
A6C G35U U59C A83U C98G A121U | -4.28
G48U C53G C86U C98A C123G C124A | -5.23
U134C | -0.304
C11G C94U U96A | -0.725
A27U G47A | -4.02
G58C G71U C101G U112C U129G | -0.74
A50G U130C | 0.163
A50U A83U U133A | -0.994
G63U U132C | -2.69
G48A G57U A95C U112A C114A | -3.34
C8U A37U C49G U55A C104A | -1.74

Variant | polymerase ribozyme fitness (log ratio)
G45A C53A U78C U109G G110U A121U | -3.1
C53G C98G | -5.63
C12G A50U C73U | -0.885
C11G C12U U21G A37U | -2.2
U14A G61A A90C A91C | -4.3
A2U A100U | -3.18
G117C U133G | -3.89
G110A C114A | -6.15
U7G C8U G61A A90U A121C | 0.312
C86U G93A | -0.143
A50U G122A | -1.23
G48U G61U | 0.43
C8G U14A G107U | -4.05
C11A C76A | -2.77
C64U C124A | 1.41
C11U C56A | -0.322
G45U G57C A118U | -0.526
G35A C56U C72U | -4.68
C62A C88U | -2.23
U32C C62A | -1.92
A27G A95U | -2.82
C56U U126A | -1.39
C8A U96C C123A | 1.93
A26U G63A | -5.09

Variant | polymerase ribozyme fitness (log ratio)
C8A C13A C49G C124G | 1.1
A50G C62U U87A | -0.164
G60C A100U C114A | -3.1
A6G C98U U106A C124A | 1.28
A16U A37G | -2.1
A5G G57U U78G U106A G110A | -1.97
A83G U92C C94A | -4.59
C56G G113A | -1.08
A5G G45U A46C G61A U78G C115U | -2.84
C62U A121U | 1.08
C15G A27C A41G C114U U116C | -7.35
G17U G45A G60C | -2.05
G63A U112A | -0.0284
A18C U55C | -3.52
A24G U55A U130A | -1.66
G45C C76G U125G | -1.06
A5C G60U G128A | -2.44
C53G C72A U81A G120C C123G | -1.65
C88A U130G | -1.33
G60C U81C | -0.172
G10U C56U G117C G122U | -3.32
C4G U92C | -3.05
U30A C88U | -5.1

Source: the RNAGym collection of RNA variant scans (doi:10.1073/pnas.2313332121)
